Assay results: US20200062827A1

Legend:
[1] = target: therapeutic human IgG1 (Bristol-Myers Squibb) (human); assay: affinity precipitation: 5 mM C12-Z33 + 20 µM IgG1, 0.6 M Na2SO4, centrifugation, A280 of supernatant
[2] = target: therapeutic human IgG1 (Bristol-Myers Squibb) (human); assay: ITC, 15 C, PBS pH 7.4, reported per ligand
[3] = target: therapeutic human IgG1 (Bristol-Myers Squibb) (human); assay: ITC, 15 C, PBS pH 7.4, reported per IgG1

percent IgG1 removed from the supernatant [1] [%]	-TΔS° (kcal · mol^-1) [2]	Kd [2] [µM]	ΔG° (kcal · mol^-1) [2]	ΔH° (kcal · mol^-1) [2]	-TΔS° (kcal · mol^-1) [3]	ΔG° (kcal · mol^-1) [3]	ΔH° (kcal · mol^-1) [3]	Substance
> 60	–	–	–	–	–	–	–	C12-Z33 immuno-amphiphile (peptide)
–	13.6	0.06	-9.5	-23.1	43.4	-10	-53.4	Z33 peptide
